Laboratory results reported in patent US20250282879A1.
Substitutions are numbered along the chain they refer to. Where two headings read alike, the source gives them in different places. One block for each binder: values may come before it.

Legend:
[1] = target: recombinant human IL-31 protein (Peprotech) (human) (UniProt Q6EBC2)
[2] = target: recombinant human IL-31 protein (Peprotech) (human) (UniProt Q6EBC2); remark: listed apart in the source
[3] = target: recombinant human IL-31 protein (Peprotech) (human) (UniProt Q6EBC2); remark: listed apart in the source
[4] = target: recombinant human IL-31 protein (Peprotech) (human) (UniProt Q6EBC2); remark: listed apart in the source
[5] = target: recombinant cynomolgus monkey IL-31 (ECD with His Tag, Sino Biological) (cynomolgus monkey)
[6] = target: human IL-4R on cells (HEK-Blue IL-4/IL-13 cells, human PBMC, human whole blood) (human) (UniProt P24394); assay: cell-based or functional assay
Human IL-4R-Fc (human) = Human IL-4R-Fc (human) (UniProt P24394); assay: SPR, hIL-4R-Fc captured, scFv analyte
[7] = target: cynomolgus IL-4R-Fc (cynomolgus monkey (Macaca fascicularis)); assay: SPR, capture setup, cynomolgus IL-4R-Fc captured
[8] = target: marmoset IL-4R ECD (marmoset (Callithrix jacchus)) (UniProt Q0PIT7); assay: SPR, direct setup, marmoset IL-4R ECD immobilized
[9] = target: cynomolgus IL-4R ECD (cynomolgus monkey (Macaca fascicularis)); assay: SPR, direct setup, cynomolgus IL-4R ECD immobilized
[10] = target: recombinant human IL-31 protein (Peprotech) (human) (UniProt Q6EBC2); assay: cell-based or functional assay
[11] = target: recombinant cynomolgus monkey IL-31 (ECD with His Tag, Sino Biological) (cynomolgus monkey); assay: SPR, IL-31-His captured, scFv analyte (30 and 10 nM)
[12] = target: recombinant cynomolgus monkey IL-31 (ECD with His Tag, Sino Biological) (cynomolgus monkey); assay: SPR, IL-31-His captured, scFv analyte, screening mode
[13] = target: recombinant cynomolgus monkey IL-31 (ECD with His Tag, Sino Biological) (cynomolgus monkey); assay: SPR, IL-31-His captured, scFv analyte, full titration mode

Sequence of marmoset IL-4R ECD (marmoset (Callithrix jacchus)) (Q0PIT7 entry or part of it limits assumed): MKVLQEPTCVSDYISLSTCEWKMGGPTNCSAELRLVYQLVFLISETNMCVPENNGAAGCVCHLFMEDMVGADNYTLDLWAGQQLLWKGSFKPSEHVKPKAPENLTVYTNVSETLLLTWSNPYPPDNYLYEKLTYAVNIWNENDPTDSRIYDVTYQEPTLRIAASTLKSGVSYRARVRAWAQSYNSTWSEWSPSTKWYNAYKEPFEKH
Sequence of cynomolgus IL-4R ECD (cynomolgus monkey (Macaca fascicularis)) (A0A2K5 entry or part of it limits assumed): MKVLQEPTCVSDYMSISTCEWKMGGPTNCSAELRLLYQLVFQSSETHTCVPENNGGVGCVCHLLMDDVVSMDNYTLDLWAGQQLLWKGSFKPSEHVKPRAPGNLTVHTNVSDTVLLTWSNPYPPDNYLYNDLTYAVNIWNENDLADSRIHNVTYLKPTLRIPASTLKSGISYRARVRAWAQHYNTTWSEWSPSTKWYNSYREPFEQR
Sequence of cynomolgus IL-4R-Fc (cynomolgus monkey (Macaca fascicularis)) (chain, as listed by the source): as the sequence (A0A2K5 entry or part of it limits assumed) above
Sequence of recombinant human IL-31 protein (Peprotech) (human) (Q6EBC2 24-164 limits assumed): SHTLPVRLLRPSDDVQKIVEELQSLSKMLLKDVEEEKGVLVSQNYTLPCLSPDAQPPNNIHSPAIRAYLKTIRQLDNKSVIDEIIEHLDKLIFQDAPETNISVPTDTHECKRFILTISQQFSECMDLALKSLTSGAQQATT

B1: BMS-981164 (antibody, from another filing, V domains shown)
VH: QVQLVQSGAEVKKPGASVKVSCKASGYTLTRYWMQWVRQAPGQGLEWMGAIYPGDGDTRYSQKFQGRVTLTADKSTSTAYMELSSLRSEDTAVYYCAFPDGYYAAPYGMDYWGQGTLVTVSS
VL: DIQMTQSPSSLSASVGDRVTITCRASGNIHNYLAWYQQKPGKVPKLLIYNAKTLADGVPSRFSGSRSETQYSLTISSLQPEDVATYYCQHFWSTPWTFGQGTKVEIKR
IC50 (read off the curve), human IL-31-induced IL-31RA/OSMR dimerization [1]: 0.2 nM | IC50 (read off the curve), human IL-31-induced IL-31RA/OSMR dimerization [2]: 0.1 nM | IC50 (read off the curve), human IL-31-induced IL-31RA/OSMR dimerization [3]: 0.07 nM | IC50 (read off the curve), human IL-31-induced IL-31RA/OSMR dimerization [4]: 0.06 nM | IC50, cynomolgus IL-31-induced IL-31RA/OSMR dimerization (RLU) [table under the graph] [5]: 0.178 nM

B2: PRO1517 (scFv, V domains shown)
VH: EVQLVESGGGLVQPGGSLRLSCAASGFSSSSAHYMCWVRQAPGKGLEWIGCIYAGSRGSTYYASWAKGRFTISRDNSKNTVYLQMNSLRAEDTAVYYCARAAFVNRGVSWIWPYYFSLWGQGTLVTVSS
VL: DIQMTQSPSSLSASVGDRVTITCQASEDIESYLAWYQQKPGKAPKLLIYRASTLAYGVPSRFSGSGSGTDFTLTISSLQPEDFATYYCLGSSYSTGSNIFGTGTKVTVLG
IC50, neutralization of hIL-4-induced signaling, stat-6 reporter gene assay [6]: 1.44 ng/mL | IC50, neutralization of hIL-13-induced signaling, stat-6 reporter gene assay [6]: 1.83 ng/mL | rel. IC50 (IC50, dupilumab/IC50, test sample), hIL-4 [6]: 0.39 | rel. IC50 (IC50, dupilumab/IC50, test sample), hIL-13 [6]: 0.57 | Kd (Human IL-4R-Fc (human)): 0.0055 nM | koff (Human IL-4R-Fc (human)): 1.95e-05 s⁻¹ | kon (Human IL-4R-Fc (human)): 3.55e+06 M⁻¹ s⁻¹ | Kd [7]: 0.0946 nM | koff [7]: 0.000182 s⁻¹ | kon [7]: 1.92e+06 M⁻¹ s⁻¹ | Kd [8]: 0.392 nM | koff [8]: 0.00105 s⁻¹ | kon [8]: 2.67e+06 M⁻¹ s⁻¹ | Kd [9]: 0.681 nM | koff [9]: 0.000404 s⁻¹ | kon [9]: 594000 M⁻¹ s⁻¹

B4: PRO1898 (scFv, V domains shown)
VH: B2 VH
VL: B2 VL with S14R, T69R
IC50, neutralization of hIL-4 induced signaling, stat-6 reporter gene assay [6]: 1 ng/mL | IC50, neutralization of hIL-13 induced signaling, stat-6 reporter gene assay [6]: 1.15 ng/mL | rel. IC50 (IC50, dupilumab/IC50, test sample), hIL-4 [6]: 1.15 | rel. IC50 (IC50, dupilumab/IC50, test sample), hIL-13 [6]: 0.87

B7: PRO1643 (scFv, V domains shown)
VH: QSQLVESGGGLVQPGGSLRLSCAASGFSFSANYWICWVRQAPGKGLEWIVCIYIGSRADTYYAPWAKGRFTISKDNSKNTVYLQMNSLRAEDTAVYFCARFSSGIYDLDRFFLWGQGTLVTVSS
V domain: AFQLTQSPSSLSASVGDRVTITCQASQSIDSWLAWYQQKPGKPPKLLIYQASKLASGVPSRFSGSGSGTDYTLTISSLQPEDFATYYCQTYYGGGHIGWGFGTGTKVTV
Kd [11]: 1.17 nM | koff [11]: 0.000587 s⁻¹ | kon [11]: 501000 M⁻¹ s⁻¹ | Kd [12]: 0.583 nM | koff [12]: 0.000444 s⁻¹ | kon [12]: 761000 M⁻¹ s⁻¹ | Kd [13]: 0.557 nM | koff [13]: 0.000426 s⁻¹ | kon [13]: 764000 M⁻¹ s⁻¹

The next lines start with the values.

IC50, neutralization of hIL-4 induced signaling, stat-6 reporter gene assay [6]: 0.71 ng/mL | IC50, neutralization of hIL-13 induced signaling, stat-6 reporter gene assay [6]: 0.56 ng/mL | rel. IC50 (IC50, dupilumab/IC50, test sample), hIL-4 [6]: 1.61 | rel. IC50 (IC50, dupilumab/IC50, test sample), hIL-13 [6]: 1.8
B3: PRO1899 (scFv, V domains shown)
VH: EVQLVESGGGRVQPGGSLRLSCAASGFSSSSAHYMCWVRQAPGKGLEWIGCIYAGSRGSTYYASWAKGRFTISKASSTTVYLQMNSLRAEDTATYYCARAAFVNRGVSWIWPYYFSLWGQGTQVTVSS
VL: B2 VL

IC50, neutralization of hIL-31-induced signaling in IL-31RA/OSMR dimerization assay [10]: 8.21 ng/mL | rel. IC50 (IC50, BMS-981164/IC50, test sample) [10]: 0.73 | Kd [11]: 1.07 nM | koff [11]: 0.000594 s⁻¹ | kon [11]: 554000 M⁻¹ s⁻¹
B5: PRO1900 (scFv, V domains shown)
VH: B7 VH with L11R, V95T, L119Q
V domain: B7 V domain

IC50, neutralization of hIL-31-induced signaling in IL-31RA/OSMR dimerization assay [10]: 7.98 ng/mL | rel. IC50 (IC50, BMS-981164/IC50, test sample) [10]: 1.49 | Kd [11]: 1.39 nM | koff [11]: 0.000605 s⁻¹ | kon [11]: 434000 M⁻¹ s⁻¹
B6: PRO1903 (scFv, V domains shown)
VH: B7 VH
V domain: B7 V domain with D30E
